For 1 substance, FGFR signaling (phosphorylation of downstream ERK and AKT pathways, Western blot, HEK293 cells) results are on record in patent publication US20150111821A1.

The experiment addresses FGF receptors. The experiment is described as follows: cell-based or functional assay.

The substance “FGF1^ΔNT (10-140αα) (SEQ ID NO: 7), N-terminally truncated FGF1 (from UniProt P05230 25-155) (ligand; the values are: fold reduction in signaling)” had an FGFR signaling (phosphorylation of downstream ERK and AKT pathways, Western blot, HEK293 cells) of 100 fold.
